From patent US7125658B2, “Small protein that interacts with a ribonucleotide reductase subunit and uses thereof” (The Trustees of Columbia University in the City of New York, priority 1998, dated 2006)
Ends that are not written are not given here.

What was measured:
GAD = target: T1, GAD (Saccharomyces cerevisiae, UniProt P04386); assay: yeast two-hybrid assay against GAD alone; format: cell-based
T1 construct: expressed in transfected cells; host or cells: S. cerevisiae two-hybrid strain PJ69-4A
T1 sequence (P04386 768-881 limits assumed): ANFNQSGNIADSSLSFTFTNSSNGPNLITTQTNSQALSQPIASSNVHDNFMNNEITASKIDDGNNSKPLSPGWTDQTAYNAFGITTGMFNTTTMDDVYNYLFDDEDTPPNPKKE
From the text: (§1) The strains and plasmids for two-hybrid analysis were PJ69-4A, pGBD-C2, pGAD-C2 (James et al., 1996) and pACTII (CLONTECH® Inc.). The primer pair pB-SML1 5′ (SEQ ID NO: 11) and pGBD-SML1 3′ (SEQ ID NO: 13) (Table 4) was used to amplify the SML1 ORF. After digestion with BamHI and PstI, this PCR product was cloned into the BamHI-PstI sites of pGBD-C2 to construct plasmid pWJ728. Similarly, plasmid pWJ684 contains a BamHI fragment from the PCR product of the SML1 ORF generated using the primer pair pB-SML1 5′ and pB-SML1 3′ (SEQ ID NO: 12) (Table 4) and inserted at the BamHI site of pACTII. PCR fragments containing the RNR1 or the RNR2 ORF were generated by primer pairs RNR1-ORF 5′ (SEQ ID NO: 14) and RNR1 3′ (SEQ ID NO: 15) or RNR2-ORF 5′ (SEQ ID NO: 17) and RNR2 3′ (SEQ ID NO: 16) (Table 4). These fragments were cloned into the BamHI-PstI site of pGBD-C2 and pGAD-C2 to construct pWJ731 and pWJ745 or pWJ729 and pWJ746 respectively.
(§2) The GAL1-HIS3 reporter was assayed on SC-HIS-LEU-TRP medium plus 1-2 mM 3-aminotriazole. The GAL2-ADE2 reporter was assayed on SC-ADE-LEU-TRP medium.

GAD-RNR2 = target: T2, GAD-RNR2 (Saccharomyces cerevisiae, UniProt P09938); assay: yeast two-hybrid assay against GAD-RNR2; format: cell-based; parameters: key to HIS3 reporter / ADE2 reporter: + signifies growth on histidine-less and adenine-less media; +/− signifies constructs unable to grow on adenine-less medium but able to give rise to white colonies on YPD medium
T2 construct: expressed in transfected cells; host or cells: S. cerevisiae two-hybrid strain PJ69-4A
T2 sequence (P09938 1-399): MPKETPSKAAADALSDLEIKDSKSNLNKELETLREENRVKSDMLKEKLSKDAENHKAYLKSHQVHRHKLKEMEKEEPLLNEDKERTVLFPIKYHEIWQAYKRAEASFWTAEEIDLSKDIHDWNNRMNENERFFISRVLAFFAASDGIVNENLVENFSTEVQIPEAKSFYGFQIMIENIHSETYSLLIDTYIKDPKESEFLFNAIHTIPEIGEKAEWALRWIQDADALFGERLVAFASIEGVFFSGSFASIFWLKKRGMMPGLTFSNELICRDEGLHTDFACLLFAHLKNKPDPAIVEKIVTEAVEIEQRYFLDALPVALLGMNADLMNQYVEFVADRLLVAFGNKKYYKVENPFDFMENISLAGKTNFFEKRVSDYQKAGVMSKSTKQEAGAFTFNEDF
From the text: as §1, §2

GAD-SML1 = target: T3, GAD-SML1 (Saccharomyces cerevisiae, UniProt Q04964); assay: yeast two-hybrid assay against GAD-SML1; format: cell-based; parameters: key to HIS3 reporter / ADE2 reporter: + signifies growth on histidine-less and adenine-less media; +/− signifies constructs unable to grow on adenine-less medium but able to give rise to white colonies on YPD medium
T3 construct: expressed in transfected cells; host or cells: S. cerevisiae two-hybrid strain PJ69-4A
T3 sequence (Q04964 1-104): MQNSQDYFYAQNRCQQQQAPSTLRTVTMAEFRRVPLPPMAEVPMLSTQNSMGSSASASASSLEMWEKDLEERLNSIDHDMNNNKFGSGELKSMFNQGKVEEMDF
From the text: as §1, §2

[1] = target: GAD-Sml1 two-hybrid fusion (plasmid pWJ684, pACTII) (Saccharomyces cerevisiae (yeast)) (UniProt Q04964); assay: cell-based or functional assay
[2] = target: T4, GAD-Sml1 two-hybrid fusion (plasmid pWJ684, pACTII) (Saccharomyces cerevisiae (yeast), UniProt Q04964 1-104); assay: cell-based or functional assay
T4 sequence: T3 sequence (Q04964 1-104)

[3] = target: T5, GAD (Gal4 activation domain alone, empty vector control) (UniProt P04386 768-881); assay: cell-based or functional assay
T5 sequence (looked up): T1 sequence (P04386 768-881 limits assumed)

[4] = target: T6, GAD-Rnr1 two-hybrid fusion (plasmid pWJ745) (yeast (Saccharomyces cerevisiae), UniProt P21524 1-888); assay: cell-based or functional assay
T6 sequence (looked up): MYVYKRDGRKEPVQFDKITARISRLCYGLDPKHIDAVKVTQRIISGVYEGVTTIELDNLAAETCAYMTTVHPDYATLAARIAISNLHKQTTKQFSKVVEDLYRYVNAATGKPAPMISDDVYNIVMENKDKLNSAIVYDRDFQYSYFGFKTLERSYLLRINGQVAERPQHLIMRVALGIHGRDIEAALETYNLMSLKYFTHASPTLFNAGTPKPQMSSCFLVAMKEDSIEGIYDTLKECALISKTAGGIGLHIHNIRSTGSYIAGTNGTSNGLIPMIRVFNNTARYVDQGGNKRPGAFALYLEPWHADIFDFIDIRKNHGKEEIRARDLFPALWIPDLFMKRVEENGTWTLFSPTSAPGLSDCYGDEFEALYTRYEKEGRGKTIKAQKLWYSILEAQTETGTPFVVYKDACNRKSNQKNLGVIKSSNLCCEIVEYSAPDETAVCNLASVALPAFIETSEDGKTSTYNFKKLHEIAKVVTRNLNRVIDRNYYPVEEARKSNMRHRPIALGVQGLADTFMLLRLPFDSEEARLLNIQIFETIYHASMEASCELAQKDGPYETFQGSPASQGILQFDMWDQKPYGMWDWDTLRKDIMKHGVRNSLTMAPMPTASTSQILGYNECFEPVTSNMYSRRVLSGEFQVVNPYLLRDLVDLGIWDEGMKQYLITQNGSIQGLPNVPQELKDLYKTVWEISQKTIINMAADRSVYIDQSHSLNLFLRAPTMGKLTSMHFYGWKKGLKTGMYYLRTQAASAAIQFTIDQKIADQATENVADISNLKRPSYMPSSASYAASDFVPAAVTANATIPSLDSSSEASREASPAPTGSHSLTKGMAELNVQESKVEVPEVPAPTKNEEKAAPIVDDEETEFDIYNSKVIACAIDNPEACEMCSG

[5] = target: T7, Recombinant yeast Rnr1 protein (large subunit of ribonucleotide reductase) (yeast (Saccharomyces cerevisiae), UniProt P21524 1-888); assay: cell-based or functional assay
T7 sequence (looked up): T6 sequence (looked up)

GAD-RNR1 = target: T8, GAD-RNR1 (Saccharomyces cerevisiae, UniProt P21524); assay: yeast two-hybrid assay against GAD-RNR1; format: cell-based; parameters: key to HIS3 reporter / ADE2 reporter: + signifies growth on histidine-less and adenine-less media; +/− signifies constructs unable to grow on adenine-less medium but able to give rise to white colonies on YPD medium
T8 construct: expressed in transfected cells; host or cells: S. cerevisiae two-hybrid strain PJ69-4A
T8 sequence (P21524 1-888): T6 sequence (looked up)
From the text: as §1, §2

[6] = SC-HIS-LEU-TRP plus 3-aminotriazole

RNR2: GBD (Gal4 DNA binding domain) fusion of the RNR2 ORF in pGBD-C2, two-hybrid construct (GAFTFNEDF)
LacZ activity (GAD): 1.4 ± 0.1 Miller Units | LacZ activity (GAD-RNR2): 2.3 ± 0.4 Miller Units | ADE2 reporter (GAD-RNR2; SC-ADE-LEU-TRP): +/− | HIS3 reporter (GAD-RNR2; [6]): + | LacZ activity (GAD-SML1): 0.9 ± 0.4 Miller Units

GBD vector (Gal4 DNA binding domain alone, empty vector control) (from UniProt P04386 1-147)
two-hybrid LacZ activity [1]: 0.4 Miller Units

B1: GBD-Rnr1 two-hybrid fusion (plasmid pWJ731) (other, UniProt P04386 1-147, looked up)
chain: MKLLSSIEQACDICRLKKLKCSKEKPKCAKCLKNNWECRYSPKTKRSPLTRAHLTEVESRLERLEQLFLLIFPREDLDMILKMDSLQDIKALLTGLFVQDNVNKDAVTDRLASVETDMPLTLRQHRISATSSSEESSNKGQRQLTVSMYVYKRDGRKEPVQFDKITARISRLCYGLDPKHIDAVKVTQRIISGVYEGVTTIELDNLAAETCAYMTTVHPDYATLAARIAISNLHKQTTKQFSKVVEDLYRYVNAATGKPAPMISDDVYNIVMENKDKLNSAIVYDRDFQYSYFGFKTLERSYLLRINGQVAERPQHLIMRVALGIHGRDIEAALETYNLMSLKYFTHASPTLFNAGTPKPQMSSCFLVAMKEDSIEGIYDTLKECALISKTAGGIGLHIHNIRSTGSYIAGTNGTSNGLIPMIRVFNNTARYVDQGGNKRPGAFALYLEPWHADIFDFIDIRKNHGKEEIRARDLFPALWIPDLFMKRVEENGTWTLFSPTSAPGLSDCYGDEFEALYTRYEKEGRGKTIKAQKLWYSILEAQTETGTPFVVYKDACNRKSNQKNLGVIKSSNLCCEIVEYSAPDETAVCNLASVALPAFIETSEDGKTSTYNFKKLHEIAKVVTRNLNRVIDRNYYPVEEARKSNMRHRPIALGVQGLADTFMLLRLPFDSEEARLLNIQIFETIYHASMEASCELAQKDGPYETFQGSPASQGILQFDMWDQKPYGMWDWDTLRKDIMKHGVRNSLTMAPMPTASTSQILGYNECFEPVTSNMYSRRVLSGEFQVVNPYLLRDLVDLGIWDEGMKQYLITQNGSIQGLPNVPQELKDLYKTVWEISQKTIINMAADRSVYIDQSHSLNLFLRAPTMGKLTSMHFYGWKKGLKTGMYYLRTQAASAAIQFTIDQKIADQATENVADISNLKRPSYMPSSASYAASDFVPAAVTANATIPSLDSSSEASREASPAPTGSHSLTKGMAELNVQESKVEVPEVPAPTKNEEKAAPIVDDEETEFDIYNSKVIACAIDNPEACEMCSG
two-hybrid LacZ activity [2]: 85 Miller Units | two-hybrid LacZ activity [3]: 0.8 Miller Units | two-hybrid LacZ activity [4]: 2.9 Miller Units

Ac-GAFTFNEDF [N-acetylated nonapeptide corresponding to the last 9 amino acids of Rnr2p]
IC50, in vitro yeast RNR assay [5]: 44 µM

Ac-KEINFDDDF [N-acetylated nonapeptide corresponding to the last 9 amino acids of Rnr4p]
IC50, in vitro yeast RNR assay [5]: 30 µM

Ac-QGKVEEMDF [N-acetylated nonapeptide corresponding to the last 9 amino acids of Sml1p]
IC50, in vitro yeast RNR assay [5]: ~300 µM

B2: RNR1: GBD (Gal4 DNA binding domain) fusion of the RNR1 ORF in pGBD-C2, two-hybrid construct (protein)
chain: T6 sequence (looked up)
LacZ activity (GAD): 0.8 ± 0.2 Miller Units | LacZ activity (GAD-SML1): 85 ± 1 Miller Units | ADE2 reporter (GAD-SML1; SC-ADE-LEU-TRP): + | HIS3 reporter (GAD-SML1; [6]): + | LacZ activity (GAD-RNR1): 2.9 ± 0.5 Miller Units | ADE2 reporter (GAD-RNR1; SC-ADE-LEU-TRP): +/− | HIS3 reporter (GAD-RNR1; [6]): +
